Source: a protein production outcome set (Wang et al. 2014)

Assay: label from the status in PepcDB records

Sequence: NKSYRSTEQITNFAKALLPDGDQIQAFTRKGDLPKVMIRYGEDAALSSLRSEVEHQLKATNTVAVLTKDLAESKQVYQYLKRYTVTTLMADSDRTMPQGVIVMPIYLAKGLEFDAVVAYDVSATNYPDADSVGILYTIASRAMHHLTLLSIGDVSPLIAQLDPTLFTIEHQVRV
- protein production: not failed

Sequence: MQGIGEGVRRAFPIVLGYVPVGFAFGVLALKSGIPAWGALAMSLFVFAGSGQLIAVGLIGGGAPLASVVLTTFVVNLRHLLMSAALAPRLRDWGLLRQALFSAEMTDETFAVHVSTLRGEADDPSRAAVFACNVTAHAAWVGGSALGVFCSTLVADVRPLGLDYALAAMFIALLLPQCRSRAHLFAALVAGACSVGFALSGAGRWNVMLATVCAATLVSLLPVGKTSTTREEMGTPGGEGGAHAD
- protein production: failed

Sequence: MTLVVPFDGSELAEAALVRAAEFGTVFEEDVLAVSVIRNGNAKYAREHDWIGPNEDFDLEAVVTSLHEQVIDLCPSSDFRHTVVDRYAPAGAVAKAIRKLAKREDASMVFIGSENAGHLVTSISSVGGSIASDDAYDVVIVRHRNPSKIAKLRNTSPHRQSKSDFYLPE
- protein production: failed

Sequence: LVVSIRVQGDKRLSSLRRCCALTRYDAHKMSHDAFTVIKNCNTSGIQTEWSPPLTMLFLCATKFSASAP
- protein production: failed

Sequence: MDLLERLGLGGRRVLILHHDDLGLTHAQNGAYQALGLPTGSVMVPGAWASGVKGEDLGVHLVLTSEWPAPRMRPLTEGESLRDEAGYFPESLEALWRKARAEEVERELKAQIQAAAKLFSPTHLDAHQGAVLRPDLAEVYLRLAEAYRLVPLVPESLEGLGVPPPFLPELERLLYETPFPQVRFLDPYGLPPEERLGFYLDLAHLPPGLYYLVHHSALPTPEGRALPDWPTREADYFALSHPEVRRVLAEFHPLTWRAVREALF
- protein production: not failed

Sequence: HKEDKEDFAELSGIAVPAEITAEDGTMFKEALLFTHRGLSGPSVLQISSFWKAGQKVSINLVPNEDIALLLERSLEKHPNQSLKNTLAKVLPKRLVEVLIERKELMDKPLKQFNPKELASVVERLENWSIAPNGTEGYRTAEVTLGGVDTDHLSSKTMECKNIKGLYFIGEVMDVTGWLGGYNFQWCWSSGFVAGQWV
- protein production: failed

Sequence: KAKPVATAPIPGTPWCVVWTGDERVFFYNPTTRLSMWDRPDDLIGRADVDKIIQEPPHKK
- protein production: not failed

Sequence: MDEQAVSTSMKTVYIRIYTSVLYTSYTKPGNWSAVDRSAWSVSCSNVYADDDAKYGAHLAIDGEINTTWFTWGVANAGECWWNTVLDRPVTLTGFSVTKQSAYGSGYNLRSAEIKVRKEGETEWVTYPRVLTFRNFKGADPQYAAIEPPIPNVKEFRINCLTPDNYTGFAEINLYVKQLEHHHHHH
- protein production: not failed

Sequence: MARLNVNPTRMELSRLKKQLTTATRGHKLLKDKQDELMRRFIALVKENNELRIQVEQEVTDALSNFVLANATLNEAFIEELVAIPAEKVELEIIEQNILSVPVPKMIFDYDESVQEAPLDYGYVNSNSELDQAFAKISSILPKLLALANVEKTCQLLSKEIEKTRRRVNALEYMTIPQLEETIYYIQMKLEENERGEITRLIKIKSMNKENLEHHHHHH
- protein production: failed

Sequence: DKCKKVYENYPVSKCQLANQCNYDCKLDKHARSGECFYDEKRNLQCICDYCEY
- protein production: not failed

Sequence: MIEMAYDDDENSMAIKVWRLYVDLWKLWYKKNERNLNKIDLSITEFTIMRHLIENGPMSMAAIASLINVTPGWITGVVDKMEEKNLVTRNRDSTDRRIIKIAITDRGREVYENAKKNHYAFIRKALAELNENELQQTYVLLQKMMDDVSKLESN
- protein production: failed

Sequence: MSLLKIFYVILGFISLGLGLIGIILPILPTTPFLLLTAFCFVKGSDKFDKWFKGTKIYKNHLESFEKNRAMTLKTKLTILLTADIMLLFPLILSKSIHLKIFIVILMMFKFYYFIFRIKTVKAGDVVEQNR
- protein production: failed

Sequence: MQTQLTEEMRQNARALEADSILRACVHCGFCTATCPTYQLLGDELDGPRGRIYLIKQVLEGNEVTLKTQEHLDRCLTCRNCETTCPSGVRYHNLLDIGRDIVEQKVKRPLPERILREGLRQVVPRPAVFRALTQVGLVLRPFLPEQVRAKLPAETVKAKPRPPLRHKRRVLMLEGCAQPTLSPNTNAATARVLDRLGISVMPANEAGCCGAVDYHLNAQEKGLARARNNIDAWWPAIEAGAEAILQTASGCGAFVKEYGQMLKNDALYADKARQVSELAVDLVELLREEPLEKLAIRGDKKLAFHCPCTLQHAQKLNGEVEKVLLRLGFTLTDVPDSHLCCGSAGTYALTHPDLARQLRDNKMNALESGKPEMIVTANIGCQTHLASAGRTSVRHWIEIVEQALEKE
- protein production: failed

Sequence: MISALDSIPEPQNFAPSPDFKWLCEELFVKIHEVQINGTAGTGKSRSFKYYEIISNFVEMWRKTVGNNIYPALVLALPYRDRRIYNIKDYVLIRTICSYLKLPKNSATEQRLKDWKQRVGKGGNLSSLLVEEIAKRRAEPSSKAITIDNVNHYLDSLSGDRFASGRGFKSLVKSKPFLHCVENMSFVELKYFFDIVLKNRVIGGQEHKLLNCWHPDAQDYLSVISDLKVVTSKLYDPKVRLKDDDLSIKVGFAFAPQLAKKVNLSYEKICRTLHDDFLVEEKMDGERIQVHYMNYGESIKFFSRRGIDYTYLYGASLSSGTISQHLRFTDSVKECVLDGEMVTFDAKRRVILPFGLVKGSAKEALSFNSINNVDFHPLYMVFDLLYLNGTSLTPLPLHQRKQYLNSILSPLKNIVEIVRSSRCYGVESIKKSLEVAISLGSEGVVLKYYNSSYNVASRNNNWIKVKPEYLEEFGENLDLIVIGRDSGKKDSFMLGLLVLDEEEYKKHQGDSSEIVDHSSQEKHIQNSRRRVKKILSFCSIANGISQEEFKEIDRKTRGHWKRTSEVAPPASILEFGSKIPAEWIDPSESIVLEIKSRSLDNTETNMQKYATNCTLYGGYCKRIRYDKEWTDCYTLNDLYESRTVKSNPSYQAERSQLGLIRKKRKRVLISDSFHQNRKQLPISNIFAGLLFYVLSDYVTEDTGIRITRAELEKTIVEHGGKLIYNVILKRHSIGDVRLISCKTTTECKALIDRGYDILHPNWVLDCIAYKRLILIEPNYCFNVSQKMRAVAEKRVDCLGDSFENDISETKLSSLYKSQLSLPPMGELEIDSEVRRFPLFLFSNRIAYVPRRKISTEDDIIEMKIKLFGGKITDQQSLCNLIIIPYTDPILRKDCMNEVHEKIKEQIKASDTIPKIARVVAPEWVDHSINENCQVPEEDFPVVNY
- protein production: failed

Sequence: MVKMIEQLKRSFAVAKKDMLIFYLKGPVIIMGLIFPFFLFLAFFIGRNLEKAQLFTALISMTAFFTSTAVGPTIIPWECRGRTFERLITAPVSLTTVLLGDLQASFYFGTAITFIISTVAIFILSIRPNLQIFLVATILAILTFSAMTILMSSYPPTDVPADIMMLSSLVKFSLLFISGIFVPLKDLPKYARWISYASPLTYYVDALRNSLGDGCLPLWIDFGMLALFGILFFLSGVAIHKKVLERRFT
- protein production: failed

Sequence: MWKHVKQVDPEIYEVLVNELKRQEYGLELIASENFASLAVIETMGSMLTNKYAEGYPKKRYYGGCEWVDRAEERAIERAKRLFGAKFANVQPHSGSQANMAVYLALAQPGDTIMGMSLSHGGHLTHGAPVNFSGKIFKVVPYGVNLETETIDYDEVRRLALEHKPKIIVAGGSAYARIIDFKRFREIADEVGAYLMVDMAHFAGLVAAGIHPNPLEYAHVVTSTTHKTLRGPRGGLILTNDPEIAKAVDKTIFPGIQGGPLMHVIAAKAVCFKEAMTEEFKEYQKQVVKNAKKMAEEFQKRGYRIVSGGTDTHLFLVDLTPKDITGKAAEKALESCGITVNKNTIPNEKRSPFVASGIRIGTPAVTTRGMKEEEMEEIAEMIDLVLSNVIDENGTVKPEVREEVSKKVRELCERFPLYRDKIEGVEI
- protein production: not failed

Sequence: MQIVQIARPGSMKGWIRKAVARYAHATGRGGKFYRRFCNPSGLEWGAYLARWGNFHSVGSNFYVNTGCKFLDPSLVRIGNSVGLSDCTLIGHDGVVLLIEHRFGKHLDSVGFIDIKDNCFIGHGAIVMPRVTIGPESIVAAGAVVTKDVPPGTVYGGNPAEFICTTEQLIKRVEARCEAYPWIDLVKQRNGAYDPEVEPLLMAQRRQYFFGDSLEHHHHHH
- protein production: failed

Sequence: MGVKRKKMGKVAGFTEWTAEDLEAFRARWPIGTAQRLALELYQWTGARCVDVIRLGPQMVGRDGVLTYVQQKTGNPAHVPWTCPAFGLEEQRADLMRCLPVGSPVYMLTEYGKPRTQKGVSQWFSAAAREAGLESRTAHGLRKYRMNALAEHGASVLVMQSWVGHTTLLEVQEYTRLEHHHHHH
- protein production: not failed

Sequence: MDKVYLTWWQVDRAIFALAEKLREYKPDVIIGVARGGLIPAVRLSHILGDIPLKVIDVKFYKGIDERGEKPVITIPIHGDLKDKRVVIVDDVSDTGKTLEVVIEEVKKLGAKEIKIACLAMKPWTSVVPDYYVFRTEKWIVFPWEEFPVIEKE
- protein production: not failed

Sequence: MARLHPIYSGQSDRPAILFVHGLDGHWLETWRHDACSKDDCWPHWVGEETGCDIWSLEYDAALSGWLDQAMPLPDQGSQVMDLLASAPALKGKPLVFVTHSLGGILVKTALVYGAEEDRRFQHIVDHVLGVVFIATPHSGAQLATLARVIKYLLRINPPVGNLEHHDPHLRTLNRRYQTLVKERGIEGYVYAEKRGVKIGPRGFGGWLRRIEPTVMVVDPGSTDPSLPEIQPISLAEDHISICKPPDRQQQIHLSLCHVLKEKIIPLAGDRGMGTTGVGLKLLESGTAQENPAAHMPPGRLVGPDDNRLSPREGKVYGRKTQENDVLAFLKGSEPVKVVGGVAGVGKTEVCKAALKTWLHTSPRPVAYYVRVPDRARSADLVLQVGKAVGIENCESLAQLLGVIPVGLYYLDNLESVADDQEGRNALRDLAQKPGVRILASSRTRLDTIFGAPIEIKCLSAPDALALFRDLWPPTQTLPKDDELQAFVIGKLGGHALSLVLVARLGMCLSFDALRRRWDEEGAALACDGVEDDTRTSNLTFNLRLTAEVLAPTPGALSVWVLMALFEEGIPEAVLEEVERRGQWPTLARHRLAVHHLISKRGDRWFLPPPVARYARYAAVTEQDGFCWRKSRQPILDLFLVFAEKASSFDSSPETLKAKKWILEFFNTISIVIECELESNVQNKFWLNRMSYFLRDIYQQRIAVSPALLRKLADAGIQPANTLRSLGDLASRLGQVDKARSLYEKALGLSQQEQSGLGQANALKALGDLASRLGQVDKARSLYETALGLFQQEQHGLGQANTLHGLGDLASQLGQVDKARSLYEKALGLFQQEPNGLGQANTLKSLGALEYRLGQVDKARSLYEKAVDLYRIEQEPLGLAYSLTNLALCFEVLKNLSKRNQVLKAAFVASRDANNEIVQIYLKEAIPEMPGADVLYDSWLKGQSR
- protein production: failed

Sequence: MADFSRLPGPNADLWDWQLLAACRGVDSSLFFHPEGERGAARSARENSAKEVCMRCPVRAECAAHALAVREPYGVWGGLTEDEREELMGRARNRLVAATASASAGGEAAGPH
- protein production: failed

Sequence: MVAIAQGLPHDLLAPAWQILILGDGSPTRHLQLLTGETTEVDVIDMSAIGHAGDRAPAQLQLIPGPRLRRQVWLRTASGQRLAYATSWWEAAHVDEYLQNRAMPIWTNLAQRKLELYRDIQAVYLGHSETLAAAFGEAGPFWGRHYLFWHDRRPITLIYEVFSPYLCRYLGPMGSTAYWANSALPFALEHHHHHH
- protein production: failed

Sequence: AQIPQQIKGVICINAGGGIYLKEAFEQFRVAGQRFLQVRPRWLSQVPLIDLLFTRASVSRPLDRQWARQRVIDFVVADPEAALGALLDSTTEDEVNRLPKLVSQLKQPVYFLAGTDDKVMEPKYVRHLASFHPLFQYCGDNVIEIPDCGHLAMLEQPDAVASHIKSLV
- protein production: failed

Sequence: MERKRYSKRYCKYTEAKISFIDYKDLDMLKHTLSERYKIMPRRLTGNSKKWQERVEVAIKRARHMALIPYIVDRKKVVDSPFKQH
- protein production: failed

Sequence: MASFPELPALRRLATLGRSWGLLSDFKYEQTRPDIFYGNLALDTSSLVAALSEDISGAGLNDLKVLDVGGGPGYFAEAFETLGATYFSVEPDVGEMSAAGIDVHGSVRGSGLDLPFLPDSFDVVYSSNVAEHVSAPWELGEEMLRVTRSGGLAILSYTIWLGPFGGHETGLWEHYVGGEFARDRYTKKHGHPPKNVFGESLFNVSCREGLEWGASVGNAELVAAFPRYHPYWVWWMVKVPVLREFAVSNLVLVFKKHLEHHHHHH
- protein production: failed
